In PMC6602965:

What was measured:
[1] = molecular target: AhlB (Aeromonas hydrophila strain AL09-71); test: crystal structure
[2] = molecular target: AhlC (Aeromonas hydrophila strain AL09-71); test: cross-linking; 1.4 mg/ml soluble AhlC with glutaraldehyde (15 min, room temperature), then EDC in 0.1 M MES pH 6 (30 min); SDS-PAGE
[3] = molecular target: AhlC (Aeromonas hydrophila strain AL09-71); test: crystal structure; soluble AhlC, two crystal forms (P6(5)22, 2.35 A; P2(1), 2.6 A)
[4] = molecular target: AhlC (Aeromonas hydrophila strain AL09-71)
[5] = molecular target: AhlB (Aeromonas hydrophila strain AL09-71)
[6] = molecular target: AhlC (Aeromonas hydrophila strain AL09-71); test: SEC; gel filtration of AhlC alone (Supplementary Fig. 2)

Substance	stoichiometry N [1]	stoichiometry N [2]	stoichiometry N [3]	haemolysis with glutaraldehyde-cross-linked AhlC (mixture of monomeric and dimeric AhlC), reduction of lysis [4] [% reduction]	haemolysis of horse erythrocytes by a 1:1 AhlB/AhlC mixture, 1 h, against lysis by osmotic shock with water [5] [%]	stoichiometry N [6]
AhlB (natural protein)	10	–	–	–	–	–
AhlC (natural protein)	–	2	4	50	50	4
